Test: label from the status in PepcDB records

Sequence | protein production
MKHPDPAQKVEGTTATTPTKVAAFFDLDKTIIAMSSTYAYGREFMNSGLISPVEALQLSLAQATYMFAGHTSEQMDNTRDQLTAMIRGWEVQQVRSIAEETMHSVVTPTIYAEARELIEHHQELGHDVIIISASVKELVEPIARELGVHKTVTTVLEAHDGMYTGEVLFYCKGDAKAQSILDLAEANNYDLSLSFAYSDSFTDLPMLEAVGNPAAVNPDRALKKIALEQGWKILSFKNPEPLFQMPSTRDVGIGTGVVAGIAAVTAGSIWWMKRARRGSA | failed
MYKDKVAVIMSVYKSDNPIDFNVAVNSIIRQTLKCDIFIYQDGPVSRELKSAINRFRKFNNIFIFVSEENKGLAYALNYLIDSCLLNNYQYIARMDSDDISHKNRMSIQVNFLEDNSDIHVVGSYCKEFGADCSLAEKKLPITHNDLLNFSITRCPFIHPSVMFRTSIFYNGLRYPVNTKYTEDMAFWFILLDLGYKFENIPETLIDYRMTENTVLRRRGFDKALSEVFIRFKYMIKFKKITVKNVSFIIGRFVFHLLPPNAIKYLYKKMR | failed
RIKPGPNGRALLFIHGTFSTTDGSFGDLASAEFFGELARTYGNAIYGFDHYSVSVTPEKNASDILKTLPSGGIDCDVVTHSRGGLVLRTLNERQGDLSQGKRFRLQRAALVACPNEGTQLATPDRWQGTLGWLANLLDLFPPNPITSNAALVMHWVTWFAKVGVAAAEG | failed
MGHHHHHHSHMPDHGDWTYEEQFKQLYELDGDPKRKEFLDDLFSFMQKRGTPVNRIPIMAKQVLDLFMLYVLVTEKGGLVEVINKKLWREITKGLNLPTSITSAAFTLRTQYMKYLYPYECEKRGLSNPNELQAAIDSNRREGRR | not failed
MTITSKLKKRRSLSTLITKIIILVLAPIILGIFVQSYYFSKQIIWQEVDRTKQQTSALILNIFESHFAAIQIHHDSNSKSDVILDFYSERNEEALNYFFLSIDQSDPSHTPEFRFLTDHQGIIWDDGNAHFYGINDSMLDGLTSKVTFSNNWYYVTSITSMGARHLLLRRVPVLEPKTGEVMGYSYNAVVLDNNFALMEKLKNEGNVDNVVLVANDIPVASSLAGDESYKIFDVLKRKETQKKLDQLLIIQTPIEVNAAITNLKLLTVQDNQSVVTLQIQHFLAMLASVIGMIMIALMTKEWIENRVVEELGSLMSYTRSAREEKGFERFGGSDIEEFDHIGSTLESTFEELEAQKRSFRDLFNFALSPIMVWSEAGVLIQINPAARKELVIENDIETMHPVFKGFKDKLVPHLRMAAQGATLTGVNVPIGDKVFRWNLSPIRVDGDISGIIVQGQDITTLIEAEKQSNLARREAEKSAQARADFLAKMSHEIRTPINGILGVAQLLKDSVEAEEQKNQIDVLRHSGEHLLAVLNDILDFSKIEQGKFNIQKHPFSFADTMRTLENIYRPICENKGVELVIENQLDGNVEIFTDQVRLNQILFNLVSNAVKFTPSGCVRLHAELEQFYGADNSVLVVEISDTGIGIESDKLDEMFEPFVQEEATTTREYGGSGLGLTIVKNLVDMLDGDVQVRSQKGQGTTFVVTLPVKDRERVLAPLDSSQRVKPAELFDESLKVLLVEDNHTNAFILKAFCTKYKMQVDWAKDGLEAMEFLKDHSYDLILMDNQLPHLGGIETTKEIRQNLKLGTPIYACTADTAQETSDAFMEAGANYVLLKPIKENALHEAFVDFKQRFLIERT | failed
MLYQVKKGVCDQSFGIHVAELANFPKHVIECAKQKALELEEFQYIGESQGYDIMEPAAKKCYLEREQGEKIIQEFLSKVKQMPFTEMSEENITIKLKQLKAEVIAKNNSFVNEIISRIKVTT | failed
MFKPQGLYDYICQQWQEEILPSLCDYIKIPNKSPHFDAKWEEHGYMEQAVNHIANWCKSHAPKGMTLEIVRLKNRTPLLFMEIPGQIDDTVLLYGHLDKQPEMSGWSDDLHPWKPVLKNGLLYGRGGADDGYSAYASLTAIRALEQQGLPYPRCILIIEACEESGSYDLPFYIELLKERIGKPSLVICLDSGAGNYEQLWMTTSLRGNLVGKLTVELINEGVHSGSASGIVADSFRVARQLISRIEDENTGEIKLPQLYCDIPDERIKQAKQCAEILGEQVYSEFPWIDSAKPVIQDKQQLILNRTWRPALTVTGADGFPAIADAGNVMRPVTSLKLSMRLPPLVDPEAASVAMEKALTQNPPYNAKVDFKIQNGGSKGWNAPLLSDWLAKAASEASMTYYDKPAAYMGEGGTIPFMSMLGEQFPKAQFMITGVLGPHSNAHGPNEFLHLDMVKKLTSCVSYVLYSFSQKK | not failed
MKSSKAEKELTHQYVLNDSLHQLFDAVNIVSVQGYDEQRRVIYWNVGSELLYGYTQKEALGQKLEDLIIPKPMREIVIGAHSDWIKKGIEIPASEITLCHKNGNDVNVFSSHALFTNQYNKKQMYCIDVNLA | failed
MDLPVMPPVKPMLAKSVAKIPPDMQYEAKWDGFRAIVFRDGTEVELGSRTGKPLTRYFPELVEALRDRLPERCVIDGEIVIARDGRLDFDALTERIHPAESRVRMLAEKTPASFVAFDLLALADDSLLDTPLTERRALLESALSGVTAPVHVAPATTDREVAEQWFEQYEGAGLDGVIAKPLTLRYRQDERAMFKVKHERTADVVVAGYRLHKSGPVVGSLLLGLYDDRGALQHVGVSAAFPMKRRAELVEELEPLRMEDAAGHPWAAWSNEAAHETARLPGAPSRWSGKKDLSWVPLRPERVAEVAYDHMENGARFRHTARFRRWRPDRTPESCTYAQLEEPVSYDLTEILGSRGLEHHHHHH | not failed
MTLVLILLALIAFIVLSTTRLKLHPFLALLAAALIAGFAYQVPTAEIVKTVTGGFGSILGYIGIVIVLGTIIGVILERSGAAITMAESVIRLLGERFPTLTMSIIGYLVSIPVFCDSGFVILNSLKNALAARMKISTIAMSVALATGLYATHTFVPPTPGPIAAAGNLGLDASLGLVIVVGLVVAFVTAMAGMWWANRFVGKDIPLVDDGQVVQTEEDFSELRARYGKLPSATQAFAPIFVPILLICLGSVAVFPSKPLGEGVLFACLNFLGQPVIALLVGLALACTLLKGQSKREEFHERVVEGIQSAAPILLITGAGGAFGAMLKITPLGDYLGSTLSALGIGLFMPFVVAAALKTAQGSTTVALVTTSALVAPLLPQLGLDSEMGRVLTVMAIGAGAMTVSHANDSFFWVVTQFSRMTVSTAYRAQTLATLVQGIAGMLAVWLLSLVLL | failed
MVDIVCWAVKNGSAGRNLLLIANASSEDDQFWPFLQGLRYRGFKLFATIPDRTLPDDECLTAGIEDTGSDD | failed
MAIAFHTFLLQLLLFFFASFAEANDSRKTYLVQMKVGGHRYGSSSGHQELLGEVLDDDSYKESFTGFSASLTPRERQKLMSKTTTVSSRRREVLEVSRSRNLKLQTTRSWDFMNLTLKAERNPENESDLVVAVIDSGIWPYSELFGSDSPPPPGWENKCENITCNNKIVGARSYYPKKEKYKWVEEKSVIDVTGHGTHVASIVAGRKVEKAGYFGLAEGTMRGGVPNAKIAVYKTCWRVIRKNGREDSVCREDNILKAIDDAIADKVDIISYSQGFQFTPLQKDKVSWAFLRALKNGILTSAAAGNYANNGKFYYTVANGAPWVMTVAASLKDRIFETKLELEGEDKPIIVYDTINTFETQDSFYPLLNEKAPPESTRKRELIAERNGYSILSNYDEKDKGKDVFFEFAQINLLDEAIKEREKGAIVLGGKSYDFNESIKLQFPIASIFLDEQKKGKLWDYYKKDQSKERLAKIHKTEEIPREEGWVPTVAHLSSRGPNCDSFLANILKNSHMNNCFQPDIAAPGLDIIAGWPENVKLSSDRPANDYRHLRFNIMSGTSMACPHATGLALYLKSFKRWSPSAIKSALMTTSSEMTDDDNEFAYGSGHLNATKVRDPGLVYETHYQDYIDYLCKLGYNTEKLRSHVGSDKIDCSKTEIDHDADLNYPTMTARVPLPLDTPFKKVFHRTVTNVNDGEFTYLREINYRGDKDFDEIIVDPPQLKFSELGETKTFTVTVTGISKRNWNKNRAFMTRNTWLTWTEKDGSRQVRSPIVIYSIKGPKACM | failed
MTLWQLIKAEIRSVLTNPVVTLTVFGGVVFYSFLYPLPYAQQTPREQPIAVVNLDGSQTSLKLERMVDATPQVKIVSRLHTVEDAKQAFLNREITGFLVIPEHFYKDVMLGKSPTLAYAADASYFLVYGTVVEGLAQAGGTLGAQVKVSKMVIEGVPLSLASHNYSAIKLNMKPTFNPTMGYIEYVVPAVFVLILQQTLIMAVGLQTGSQRHGRGYWSQVSTGSLLLVRTLVFIAIYYLLSAYYFGFSFERLSVNHIAKAGELLTMLFPFLLGCCGLGFWLGYLLPRRELVTLVVLVSSMPLIFLAGFIWPVESIPAPLLWIADLSPSTWSIKGFLALNQMGATWQQVAKHWTALWLLVALWGGVAYWIAKRNNKPVVTESLS | failed
MSRSPRYTNFILIAVMLGALLPAAGCLEEHEVASAGLSSATMSVNLTYYTEQLPPYNYMENSMLQGLSVDLLEEITEKMGKKVTREEVHLVPWTEGYQAALNGNNTVLFSMARSPEREQFFKWAGPIYSDRYVLFAKRDRGITIKNPEDLKGYRIGVIADDIATRQLLDIGVNQSQIAPESNVSAIIAGLENGDIDLWACPEDAGRYFTEELTGSYYSYTVVYQLETQDLYYAFSKDVPDSVVQSFQQALDAVKREKDVEGISTYDRILGKYIPSIGLARLNYLTEEWAPFNYQEDGNVTGISVEILEAVFKNIGVNRSRADVRIVPLAEGFQIAQNNTSTVLFSIVRTPEREPFYKWAGPFTRANFVLYAPVSSNITISSPKDLNQYRIGAIRASIENDLLASQGVNESQIINGQTPEDLFRMLEEGQIDLWATGDLAGRHQMLRTAEDPNAYEIVYTLSENDFYYIFSKDVPDTLVSAFQQALDTVRDQRDEQGVSDYERIIYRNLGVGCAPQTFTDDTVMELVNTTVKAIEKNASDTFRRINAGEAPYRDSKDPGLYAFVYDTNLTIVAHADNIQLVGTNFRGKTDVTGKPFRDEILEGALKNGTGSVDYVYMHPVQTNLYYKTAYYRLTRGSDGNSYIVCSGNYKLCQNQSEAMPANNSTASPEELAAFVEKAFEYAHENGQEVALREFNNQAGQFVDGKFYIFAYDTNGTTLALPFQPEIIGTKRWNVTDTNGTLFIQDLVDTAQSGGGFVRYFYADPADNFTVKQKLSYVMMVNQSWIIGSGIYDPQKDSAIVRAGTDPQVRENLKSFVGEAIEYANTNGKDTAIEEFNDRNGAFVRGNLYIYAFDYNGTTLALPYQAQLIGTNLSELQDPYGVNYTKVEIFMAQQGGGFLFYHYYNPARNMTLEPKMSYVQKVDDTWWLGAGTYTEDLNRITKRD | failed
MILNRQTVALMTAGLLAFNSCSLKQMVKMAKDQELTVTPSPLEVHGDSVAFDISATLPVKMLKKNKIYSVSTFYKSGDNKVELGSFDFVSTDYPDAKTTAPQIKKHQAFAYKPEIGNGDLLAVGTASNLDKTKTKSTEEFPIAKGLITTSRLVKDYSYVAYADHGYNNKEELIASTVNFYFEQGKSVLRSSEMKGQNAKFLDAFITAKHVTRTISVIGQHSPEGTETKNTNLANERSVVIEKYVKARMKHFKQDSLVNTIQFVTKGDIKDFEPMKAEIAKSTKLTPEQKSELLNIIAGSGDFTSKQQQIEKLPYYNKSVLAQLYPSLRTARTEIWTVKPKKTDAQISLLAGQITSGKVSVDTLSVEELGYAGTLTPILSEKAAIYEALAKKTDNWVAYNNLGAVYVEMAKVEVDQNKKTELVNKAINTLEMSIKKQDNGEAHVNLASAYILSGVKTSARDEANKAVASNASDAVKKGANGILGTVDIKDGKYELALQDFSKSNDSIQVKFNTALASLLKKDFNTAKAGFANYTAAAPNDAAGFYLAAVTAARLKDEATLTTNLKKAKQLSPKFGERAVSDMEFYDYWNSDNFKNALK | failed
MTKILYMVVPCYNEELVLDETSERLKAKYEQLISNNIISPKSRVVYVNDGSKDKTWEKIQEKHNENPMFSGINLSRNRGHQNALLAGLMTVRNLADCVISMDADLQDDINAIDEMLEKFENENCDIVYGVRDNRDTDTVFKRRTAGAFYKLMQGLGSQSVPNHADFRLMSRRALDGLAQFPEQNLFLRGMVPLVGYKSDIVYYKRGERFAGESKYPLKKMISFALDGITSTSAAPMRLIFWIGLIWFLLAIVGAIYIIARHFINGSDVAGWASTMLAIIGFGGANLLALGVIGEYIGKIFLEVKQRPRYLIEDFINED | failed

From a protein production outcome set (Wang et al. 2014)
